Measured values published in patent US20160200782A1.

How the values were obtained:
Experiment in all cases: cell-based or functional assay
Flt3(D835Y)(h) (human) = Flt3(D835Y)(h) (human) (UniProt P36888)
[1] = biological target: IGF-1R(h), activated (human) (UniProt P08069)
CHK1(h) (human) = CHK1(h) (human) (UniProt O14757)
EphB1(h) (human) = EphB1(h) (human) (UniProt P54762)
MST3(h) (human) = MST3(h) (human) (UniProt Q9Y6E0)
FGFR4(h) (human) = FGFR4(h) (human) (UniProt P22455)
NEK3(h) (human) = NEK3(h) (human) (UniProt P51956)
cKit(h) (human) = cKit(h) (human) (UniProt P10721)
Sequence of cKit(h) (human) (P10721 544-976 limits assumed): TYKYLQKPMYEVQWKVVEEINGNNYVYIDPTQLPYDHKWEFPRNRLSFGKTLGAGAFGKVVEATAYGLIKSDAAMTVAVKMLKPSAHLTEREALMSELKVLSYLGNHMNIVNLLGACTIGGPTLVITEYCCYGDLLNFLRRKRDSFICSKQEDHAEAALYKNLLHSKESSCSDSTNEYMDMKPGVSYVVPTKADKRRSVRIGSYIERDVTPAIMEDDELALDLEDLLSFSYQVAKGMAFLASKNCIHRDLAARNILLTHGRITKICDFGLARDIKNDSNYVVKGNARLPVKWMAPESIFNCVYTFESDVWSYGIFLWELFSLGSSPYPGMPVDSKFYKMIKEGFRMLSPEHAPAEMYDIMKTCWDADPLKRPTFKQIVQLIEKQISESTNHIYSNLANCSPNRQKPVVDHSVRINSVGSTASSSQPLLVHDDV

LOK(h) (human) = LOK(h) (human) (UniProt O94804)
IKKα(h) (human) = IKKα(h) (human) (UniProt O15111)
PTK5(h) (human) = PTK5(h) (human) (UniProt P42685)
NEK6(h) (human) = NEK6(h) (human) (UniProt Q9HC98)
PKG1β(h) (human) = PKG1β(h) (human) (UniProt Q13976)
EphB2(h) (human) = EphB2(h) (human) (UniProt P29323)
CDK3/cyclinE(h) (human) = CDK3/cyclinE(h) (human) (UniProt Q00526)
EGFR(L858R)(h) (human) = EGFR(L858R)(h) (human) (UniProt P00533)
HIPK1(h) (human) = HIPK1(h) (human) (UniProt Q86Z02)
Lck(h) activated (human) = Lck(h) activated (human) (UniProt P06239)
PRAK(h) (human) = PRAK(h) (human) (UniProt Q8IW41)
PKBβ(h) (human) = PKBβ(h) (human) (UniProt P31751)
NLK(h) (human) = NLK(h) (human) (UniProt Q9UBE8)
FAK(h) (human) = FAK(h) (human) (UniProt Q05397)
Met(Y1248D)(h) (human) = Met(Y1248D)(h) (human) (UniProt P08581)
JAK3(h) (human) = JAK3(h) (human) (UniProt P52333)
Sequence of JAK3(h) (human) (P52333 781-1124 limits assumed): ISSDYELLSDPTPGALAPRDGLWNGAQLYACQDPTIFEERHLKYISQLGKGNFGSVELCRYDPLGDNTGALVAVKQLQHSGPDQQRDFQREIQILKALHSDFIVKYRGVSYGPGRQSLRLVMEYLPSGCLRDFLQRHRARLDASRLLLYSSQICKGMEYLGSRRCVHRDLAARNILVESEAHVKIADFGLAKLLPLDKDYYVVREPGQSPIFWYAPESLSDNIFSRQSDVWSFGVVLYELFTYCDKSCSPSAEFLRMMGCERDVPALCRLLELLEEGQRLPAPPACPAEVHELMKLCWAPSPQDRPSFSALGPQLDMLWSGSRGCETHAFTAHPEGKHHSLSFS

Fer(h) (human) = Fer(h) (human) (UniProt P16591)
Sequence of Fer(h) (human) (P16591 541-822 limits assumed): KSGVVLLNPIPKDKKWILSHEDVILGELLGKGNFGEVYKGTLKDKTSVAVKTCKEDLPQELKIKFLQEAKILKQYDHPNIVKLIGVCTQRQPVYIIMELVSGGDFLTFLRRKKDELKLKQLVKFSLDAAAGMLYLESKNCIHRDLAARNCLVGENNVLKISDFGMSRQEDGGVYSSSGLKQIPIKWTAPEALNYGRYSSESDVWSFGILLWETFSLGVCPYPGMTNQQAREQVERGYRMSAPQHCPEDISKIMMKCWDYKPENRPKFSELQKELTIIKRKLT

MSSK1(h) (human) = MSSK1(h) (human) (UniProt Q9UPE1)
MRCKα(h) (human) = MRCKα(h) (human) (UniProt Q5VT25)
EphA5(h) (human) = EphA5(h) (human) (UniProt P54756)
Aurora-B(h) (human) = Aurora-B(h) (human) (UniProt Q96GD4)
cSRC(h) (human) = cSRC(h) (human) (UniProt P12931)
DDR2(h) (human) = DDR2(h) (human) (UniProt Q16832)
Sequence of DDR2(h) (human) (Q16832 422-855 limits assumed): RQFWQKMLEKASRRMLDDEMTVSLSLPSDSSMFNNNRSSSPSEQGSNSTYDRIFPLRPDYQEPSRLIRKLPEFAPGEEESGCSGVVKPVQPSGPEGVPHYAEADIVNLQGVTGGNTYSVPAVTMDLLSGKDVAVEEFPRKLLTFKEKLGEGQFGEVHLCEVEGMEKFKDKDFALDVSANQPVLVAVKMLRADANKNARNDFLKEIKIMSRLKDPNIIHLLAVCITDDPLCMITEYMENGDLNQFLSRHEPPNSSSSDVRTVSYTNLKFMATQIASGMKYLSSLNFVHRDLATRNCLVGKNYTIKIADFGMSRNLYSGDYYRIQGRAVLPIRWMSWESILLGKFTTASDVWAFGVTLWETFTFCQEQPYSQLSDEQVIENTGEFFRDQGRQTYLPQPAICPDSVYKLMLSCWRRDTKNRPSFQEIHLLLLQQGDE

Met(Y1248C)(h) (human) = Met(Y1248C)(h) (human) (UniProt P08581)
SAPK4(h) (human) = SAPK4(h) (human) (UniProt O15264)
Fms(h) (human) = Fms(h) (human) (UniProt P07333)
EGFR(h) (human) = EGFR(h) (human) (UniProt P00533)
Ab1(H396P)(h) (human) = Ab1(H396P)(h) (human) (UniProt P00519)
LIMK1(h) (human) = LIMK1(h) (human) (UniProt P53667)
Sequence of LIMK1(h) (human) (P53667 285-638 limits assumed): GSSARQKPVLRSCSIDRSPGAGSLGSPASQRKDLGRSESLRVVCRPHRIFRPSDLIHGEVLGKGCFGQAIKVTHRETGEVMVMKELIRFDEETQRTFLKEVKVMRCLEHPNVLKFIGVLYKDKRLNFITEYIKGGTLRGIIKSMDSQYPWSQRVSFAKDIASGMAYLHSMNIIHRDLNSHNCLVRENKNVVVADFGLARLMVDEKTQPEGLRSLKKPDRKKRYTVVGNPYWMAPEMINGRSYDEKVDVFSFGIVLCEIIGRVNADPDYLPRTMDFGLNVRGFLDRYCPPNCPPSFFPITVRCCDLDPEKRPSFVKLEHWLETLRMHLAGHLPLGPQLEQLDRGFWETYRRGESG

CDK5/p35(h) (human) = CDK5/p35(h) (human) (UniProt Q00535)
Pyk2(h) (human) = Pyk2(h) (human) (UniProt Q14289)
Sequence of Pyk2(h) (human) (Q14289 whole entry): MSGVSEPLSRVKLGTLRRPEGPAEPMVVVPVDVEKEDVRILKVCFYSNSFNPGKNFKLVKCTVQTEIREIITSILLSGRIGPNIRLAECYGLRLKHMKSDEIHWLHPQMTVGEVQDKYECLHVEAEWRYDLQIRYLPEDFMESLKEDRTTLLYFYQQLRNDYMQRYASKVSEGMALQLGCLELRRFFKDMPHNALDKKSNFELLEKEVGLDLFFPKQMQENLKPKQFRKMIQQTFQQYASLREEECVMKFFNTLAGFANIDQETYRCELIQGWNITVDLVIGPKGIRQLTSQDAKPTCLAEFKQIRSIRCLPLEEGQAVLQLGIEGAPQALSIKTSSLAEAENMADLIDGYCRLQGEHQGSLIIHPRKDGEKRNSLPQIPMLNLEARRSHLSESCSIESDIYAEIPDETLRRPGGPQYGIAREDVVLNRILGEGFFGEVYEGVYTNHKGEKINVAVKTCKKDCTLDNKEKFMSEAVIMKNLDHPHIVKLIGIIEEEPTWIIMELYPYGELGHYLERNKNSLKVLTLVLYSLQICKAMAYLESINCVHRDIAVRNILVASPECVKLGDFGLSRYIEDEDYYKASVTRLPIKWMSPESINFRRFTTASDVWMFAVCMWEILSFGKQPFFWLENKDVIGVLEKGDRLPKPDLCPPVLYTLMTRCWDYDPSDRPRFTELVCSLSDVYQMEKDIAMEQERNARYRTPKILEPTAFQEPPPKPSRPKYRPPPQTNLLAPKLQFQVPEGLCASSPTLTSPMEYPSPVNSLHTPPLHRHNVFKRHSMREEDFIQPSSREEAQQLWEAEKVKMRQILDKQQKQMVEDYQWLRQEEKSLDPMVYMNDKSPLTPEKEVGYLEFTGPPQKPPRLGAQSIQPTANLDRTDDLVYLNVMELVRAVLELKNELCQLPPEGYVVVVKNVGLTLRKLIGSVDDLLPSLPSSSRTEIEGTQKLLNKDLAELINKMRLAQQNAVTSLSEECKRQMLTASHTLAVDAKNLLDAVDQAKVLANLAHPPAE

PKCµ(h) (human) = PKCµ(h) (human) (UniProt Q15139)
JNK3(h) (human) = JNK3(h) (human) (UniProt P53779)
Sequence of JNK3(h) (human) (P53779 whole entry): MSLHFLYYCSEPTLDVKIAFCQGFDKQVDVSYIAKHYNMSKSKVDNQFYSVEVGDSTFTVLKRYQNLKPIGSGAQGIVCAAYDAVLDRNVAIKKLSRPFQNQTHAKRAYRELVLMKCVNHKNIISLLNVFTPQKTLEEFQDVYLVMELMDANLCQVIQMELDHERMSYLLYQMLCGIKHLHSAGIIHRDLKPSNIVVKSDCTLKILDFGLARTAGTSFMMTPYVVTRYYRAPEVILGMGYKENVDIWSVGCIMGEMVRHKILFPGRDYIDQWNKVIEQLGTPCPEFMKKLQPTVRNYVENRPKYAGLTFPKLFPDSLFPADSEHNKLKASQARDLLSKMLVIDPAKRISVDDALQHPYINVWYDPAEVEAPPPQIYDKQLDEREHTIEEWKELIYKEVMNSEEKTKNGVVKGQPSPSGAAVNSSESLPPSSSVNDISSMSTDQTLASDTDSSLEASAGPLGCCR

EphA7(h) (human) = EphA7(h) (human) (UniProt Q15375)
IR(h), activated (human) = IR(h), activated (human) (UniProt P06213)
DAPK1(h) (human) = DAPK1(h) (human) (UniProt P53355)
CaMKIIδ(h) (human) = CaMKIIδ(h) (human) (UniProt Q13557)
BTK(h) (human) = BTK(h) (human) (UniProt Q06187)
Sequence of BTK(h) (human) (Q06187 whole entry): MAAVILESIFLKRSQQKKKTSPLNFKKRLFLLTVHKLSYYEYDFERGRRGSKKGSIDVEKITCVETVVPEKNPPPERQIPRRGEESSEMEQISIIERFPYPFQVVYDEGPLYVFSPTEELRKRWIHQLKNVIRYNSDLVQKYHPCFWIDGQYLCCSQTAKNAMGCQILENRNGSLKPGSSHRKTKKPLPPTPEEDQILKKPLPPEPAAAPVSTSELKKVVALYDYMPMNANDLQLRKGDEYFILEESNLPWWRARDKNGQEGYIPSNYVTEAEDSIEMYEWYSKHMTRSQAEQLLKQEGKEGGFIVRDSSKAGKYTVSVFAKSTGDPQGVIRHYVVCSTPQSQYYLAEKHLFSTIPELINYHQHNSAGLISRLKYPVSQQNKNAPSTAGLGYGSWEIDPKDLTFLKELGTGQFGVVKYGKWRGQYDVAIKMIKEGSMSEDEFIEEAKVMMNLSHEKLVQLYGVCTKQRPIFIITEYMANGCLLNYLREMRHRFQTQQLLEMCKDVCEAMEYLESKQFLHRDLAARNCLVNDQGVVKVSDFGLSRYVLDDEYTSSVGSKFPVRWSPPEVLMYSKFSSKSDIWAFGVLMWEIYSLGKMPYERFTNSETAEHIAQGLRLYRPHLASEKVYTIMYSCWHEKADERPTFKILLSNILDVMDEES

CK1δ(h) (human) = CK1δ(h) (human) (UniProt P48730)
TrkB(h) (human) = TrkB(h) (human) (UniProt Q16620)
WNK3(h) (human) = WNK3(h) (human) (UniProt Q9BYP7)
AMPKa1(h) (human) = AMPKa1(h) (human) (UniProt Q13131)
Sequence of AMPKa1(h) (human) (Q13131 whole entry): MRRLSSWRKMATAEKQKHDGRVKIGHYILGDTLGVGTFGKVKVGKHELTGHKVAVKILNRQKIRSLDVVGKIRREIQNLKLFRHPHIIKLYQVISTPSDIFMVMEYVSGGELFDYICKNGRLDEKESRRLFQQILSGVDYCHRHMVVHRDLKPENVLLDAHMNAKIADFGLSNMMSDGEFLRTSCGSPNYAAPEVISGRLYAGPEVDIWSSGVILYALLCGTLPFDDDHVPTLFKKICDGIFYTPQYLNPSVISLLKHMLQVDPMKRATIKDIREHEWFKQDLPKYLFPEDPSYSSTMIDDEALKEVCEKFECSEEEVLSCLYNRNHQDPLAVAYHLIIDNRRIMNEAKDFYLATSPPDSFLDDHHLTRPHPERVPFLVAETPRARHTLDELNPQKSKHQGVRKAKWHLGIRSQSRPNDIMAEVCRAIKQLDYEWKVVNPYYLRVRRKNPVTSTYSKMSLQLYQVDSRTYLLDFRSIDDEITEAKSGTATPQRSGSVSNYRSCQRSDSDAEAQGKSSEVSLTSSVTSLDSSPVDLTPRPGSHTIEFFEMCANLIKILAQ

MuSK(h) (human) = MuSK(h) (human) (UniProt O15146)
Ret(V804M)(h) (human) = Ret(V804M)(h) (human) (UniProt P07949)
Sequence of Ret(V804M)(h) (human) (P07949 658-1114 V804M limits assumed): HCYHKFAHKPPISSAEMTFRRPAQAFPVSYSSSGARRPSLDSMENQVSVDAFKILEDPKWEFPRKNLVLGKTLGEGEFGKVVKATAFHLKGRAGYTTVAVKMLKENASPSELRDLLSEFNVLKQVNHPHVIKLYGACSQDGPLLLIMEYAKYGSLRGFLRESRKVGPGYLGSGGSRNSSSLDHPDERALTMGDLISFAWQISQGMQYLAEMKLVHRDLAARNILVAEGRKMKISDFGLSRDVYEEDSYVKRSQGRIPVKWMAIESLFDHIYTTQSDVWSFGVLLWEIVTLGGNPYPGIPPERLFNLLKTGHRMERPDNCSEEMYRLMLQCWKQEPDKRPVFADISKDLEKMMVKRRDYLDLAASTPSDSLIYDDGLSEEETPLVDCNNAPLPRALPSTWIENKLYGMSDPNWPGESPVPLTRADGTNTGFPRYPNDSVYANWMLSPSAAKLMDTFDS

CK2(h) (human) = biological target: CK2(h) (human)
cKit(V654A)(h) (human) = cKit(V654A)(h) (human) (UniProt P10721)
TAO3(h) (human) = TAO3(h) (human) (UniProt Q9H2K8)
CDK2/cyclinA(h) (human) = CDK2/cyclinA(h) (human) (UniProt P24941)

Substance: MMI-0500 (peptide)
- % activity (Flt3(D835Y)(h) (human)): 65%
- % activity [1]: 45%
- % activity (CHK1(h) (human)): 65%
- % activity (EphB1(h) (human)): 37%
- % activity (MST3(h) (human)): 4%
- % activity (FGFR4(h) (human)): 3%
- % activity (NEK3(h) (human)): 20%
- % activity (cKit(h) (human)): 45%
- % activity (LOK(h) (human)): 7%
- % activity (IKKα(h) (human)): 50%
- % activity (PTK5(h) (human)): 96%
- % activity (NEK6(h) (human)): 49%
- % activity (PKG1β(h) (human)): 24%
- % activity (EphB2(h) (human)): 70%
- % activity (CDK3/cyclinE(h) (human)): 8%
- % activity (EGFR(L858R)(h) (human)): 26%
- % activity (HIPK1(h) (human)): 47%
- % activity (Lck(h) activated (human)): 76%
- % activity (PRAK(h) (human)): 95%
- % activity (PKBβ(h) (human)): 21%
- % activity (NLK(h) (human)): 19%
- % activity (FAK(h) (human)): 94%
- % activity (Met(Y1248D)(h) (human)): 218%
- % activity (JAK3(h) (human)): 95%
- % activity (Fer(h) (human)): 196%
- % activity (MSSK1(h) (human)): 22%
- % activity (MRCKα(h) (human)): 5%
- % activity (EphA5(h) (human)): 42%
- % activity (Aurora-B(h) (human)): 5%
- % activity (cSRC(h) (human)): 30%
- % activity (DDR2(h) (human)): 79%
- % activity (Met(Y1248C)(h) (human)): 73%
- % activity (SAPK4(h) (human)): 48%
- % activity (Fms(h) (human)): 14%
- % activity (EGFR(h) (human)): -1%
- % activity (Ab1(H396P)(h) (human)): 51%
- % activity (LIMK1(h) (human)): 87%
- % activity (CDK5/p35(h) (human)): 59%
- % activity (Pyk2(h) (human)): 46%
- % activity (PKCµ(h) (human)): 10%
- % activity (JNK3(h) (human)): 171%
- % activity (EphA7(h) (human)): 189%
- % activity (IR(h), activated (human)): 90%
- % activity (DAPK1(h) (human)): 0%
- % activity (CaMKIIδ(h) (human)): 1%
- % activity (BTK(h) (human)): 18%
- % activity (CK1δ(h) (human)): 78%
- % activity (TrkB(h) (human)): 12%
- % activity (WNK3(h) (human)): 9%
- % activity (AMPKa1(h) (human)): 35%
- % activity (MuSK(h) (human)): 27%
- % activity (Ret(V804M)(h) (human)): 36%
- % activity (CK2(h) (human)): 93%
- % activity (cKit(V654A)(h) (human)): 223%
- % activity (TAO3(h) (human)): 12%
- % activity (CDK2/cyclinA(h) (human)): 87%
